The source of these data is the RNAGym collection of RNA variant scans (doi:10.1073/pnas.2313332121).

This sample holds only a part of the variants without activity.

B1: TPR 5TU (parent)
chain: GGAUCUUCUCGAUCUAACAAAAAAGACAAAUCUGCCACAAAGCUUGAGAGCAUCUUCGGAUGCAGAGGCGGCAGCCUUCGGUGGCGCGAUAGCGCCAACGUUCUCAACUAUGACACGCAAAACGCGUGCUCCGUUGAAUGGAGUUUAUCAUG

This data set covers variants of B1. The data set can be described thus: polymerase ribozyme fitness, log enrichment relative to wild type (log ratio); higher = more active; in vitro selection for triplet polymerase activity. An outline of the steps: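 To select mutant libraries of each subunit of a heterodimeric triplet polymerase ribozyme, built by PCR and transcribed, each was annealed with a biotinylated primer, partner subunit and triplets, then incubated frozen at −7 °C. Extended constructs were gel-excised, captured on streptavidin beads and amplified by RT-PCR, in one round carried out in triplicate. Illumina sequencing of input and output libraries kept genotypes with ≥10 input reads and ≥1 read per output. Fitness is the base-2 logarithm of genotype enrichment relative to wild-type enrichment, from inverse-variance-weighted replicate averages.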
Turning to GGAUCUUCUCGAUCUAACAAAAAAGACAAAUCUGCCACAAAGCUUGAGAGCAUCUUCGGAAGCAGAGGCGGCAGCCUUCGGUGGCACGAUAGCGCCAACGUUCUCAACUAUGACACGCAAAACGCGUGCUCCGUUGAAUGGAGUUUAUCAUG, the “polymerase ribozyme fitness (log ratio)” value is -2.67.
For GGAUCUUCUCGAUCUAACAAAAAAGACAAAUCUGCCACAAAGCUUGAGAGCAUCUUCGGAUACAGAGGCGGCAGCCUUCGGUGGCGCGAUAGCGCAAACGUUCUCAACUAUGACACGCAAAACGCGUGCUCCGUUGAAUGGAGUUUAUCAUG the value was -2.92; for GGAUCUUCUCGAUCUAACAAAAAAGACAAAUCUGCCACAAAGCUUGAGAGCAUCUUCGGAAGCAGAGGCGGCAGCCUUCGGUGGCGCGAUAGCGCCAACGUCCUCAACUAGGACGCGCAAAAAGCGUGCUCCGUUGAAGGGAGUUUAUCAUG, ≤ -4.2; for GGAUCUUCUCGAUCUAACAAAAAAGACAAAUCUGCCACAAAGCUUGAGAGCAUCUUCGGAUACAGAGGCGGCAGCCUUCGGUGACGCGAUAGCGCCAACGUUCUCAACUAUGACACGCAAAACGCGUGCUCCGUUGAAUGGAGUUUAUCAUG, -2.31.
For GGAUCUUCUCGAUCUAACAAAAAAGACAAAUCUGCCACAAAGCUUGAGAGCAUCUUCGGAGGCAGAGGCGGCAGUCUUCGGUGGCGCGAUAACGCCAACGUUCUCAACUAUGACACGCAAAACGCGUGCUCCGUUGAAUGGAGUUUAUAAUG the value was ≤ -4.2.
For GGAUCUUCUCGAUCUAACAAAAAAGACAAAUCUGCCACAAAGCUUGAGAGCAUCUUCGGAAGCAGAGGCGGCAGCCUUCGGUGGCGCGAUAGCGCCAACGUCCUCAACUAUGACACGCAAAACGCGUGCUCCGUUGAAUGGAGUUUAUCAUG the value was -2.2; for GGAUCUUCUCGAUCUAACAAAAAAGACAAAUCUGCCACAAAGCUUGAGAGCAUCUUCGGAGGCAGAGGCGGCAGCCUUCGGUGGCGCCAUAGCGCCAACGUUCUCAACUAUGACACGCAAAACGCGUGCUCCGUUGAAUGGAGUUUAUCAUG, ≤ -4.2; for GGAUCUUCUCGAUCUAACAAAAAAGACAAAUCUGCCACAAAGCUUGAGAGCAUCUUCGGAUACAACGGCGGCAGCCCUCGGUGGCGCGAUAGCGCCAACGUUCUCAACUAUGACACGCAAAACGCGUGCUCCGUCGAAUGGAGUGUAUCAUG, ≤ -4.2.
As for GGAUCUUCUCGAUCUAACAAAAAAGACAAAUCUGCCACAAAGCUUGAGAGCAUCUUCGGAUACAGAGGCGGCAGCCUUCGGUGGCGCGAUAGCGCCAACGUUAUCAACUAUGACACGCAAAACGCGUGCUCCGUUGAAUGGAGUUUAUCAUA, the “polymerase ribozyme fitness (log ratio)” value is -3.85.
For GGAUCUUCUCGAUCUAACAAAAAAGACAAAUCUGCCACAAAGCUUGAGAGCAUCUUCGGAAGCACAGGCGGCAGCCUUCGGGGGCGCGAUAGCGCCAACGUUCUCAACUAUGACACGAAAAACGCGUGCUCCGUUGAUUGGAGUUUAUCAAG the value was ≤ -4.2.
For GGAUCUUCUCGAUCUAACAAAAAAGACAAAUCUGCCACAAAGCUUGAGAGCAUCUUCGGAUACAGAGGCGGCAGCUUUCGGUGGCGCGAUAGCGCCAACGUUCUCAACUAUGACACGCAAAACGCGUGCUCCGUUGAAUGGAGUUUAUCAUG the value was -1.26; for GGAUCUUCUCGAUCUAACAAAAAAGACAAAUCUGCCACAAAGCUUGAGAGCAUCUUCGGAUACAGAGCCGGCAGCCUUCGGUGGCGAGAUAGCGCCAACGUUCUCAACUAUGACACGCAAAACGCGUGCUCCGUUGAAUGGAGUUUAUCAUG, ≤ -4.2; for GGAUCUUCUCGAUCUAACAAAAAAGACAAAUCUGCCACAAAGCUUGAGAGCAUCUUCGGAUACAGAGGCGGCAGCCUUCGGUGGUGCGAUAGCGCCAACGUUCUCAACUAUGACUCGCAAAACGCGUGCUCCGUUGAAUGUAGUUUAUCAUG, -1.19.
As to GGAUCUUCUCGAUCUAACAAAAAAGACAAAUCUGCCACAAAGCUUGAGAGCAUCUUCGGAAGCAGAGGCGGCAGCCUUCGGUGGCGCGAUAGCGCCAACGAUCUCAACUAUGACACGCAAAACGCGUGCUCCGUUGAAUGGAGUUUAUCAUG, the “polymerase ribozyme fitness (log ratio)” value is -1.08.
Then GGAUCUUCUCGAUCUAACAAAAAAGACAAAUCUGCCACAAAGCUUGAGAGCAUCUUCGGAGGCAGAGGCGGCAGCCUUCGGUGGCGCGAUAGCGCCAACGUUCUUAACUAUGACGCGCAAAACGCGUGCUCCGUUGAAUGGAGUUUCUCAUU, with ≤ -4.2; and GGAUCUUCUCGAUCUAACAAAAAAGACAAAUCUGCCACAAAGCUUGAGAGCAUCUUCGGAUACAGAGGCGGCAGCCUUCGGUGGCGCGAUAGCGCCAACGUUCUCAACUAUGACGCGCAGAACGCGUGCUCCGUUGAAUGGAGUUUAUCAUG, with -0.97.
For GGAUCUUCUCGAUCUAACAAAAAAGACAAAUCUGCCACAAAGCUUGAGAGCAUCUUCGGAUACAGAGGCGGCAGCCUUCGGUGGUUGGAUAGCGCCAACGUUCUCAACUAUGACACGCAAAACGCGUGCUCCGUUGAAUGGAGUUUAUCAUG the value was ≤ -4.2.
With GGAUCUUCUCGAUCUAACAAAAAAGACAAAUCUGCCACAAAGCUUGAGAGCAUCUUCGGAAGCAGAGGCGGCAGCCUUCGGUGGCGCGAUAGCGCCAACGUUCUCAACGAUGACACGCAAAACGCGUGCUCCGUUGAAUGGAGUUUAUCAUG, the “polymerase ribozyme fitness (log ratio)” value was -2.11.
For GGAUCUUCUCGAUCUAACAAAAAAGACAAAUCUGCCACAAAGCUUGAGAGCAUCUUCGGAAGCAGAGGCGGCAGCCUUCGGUGACGCGAUAGCGCCAACGUUCUCAACUAUGACACGCAAAACGCGUGCUCCGAUGAAUGGAGUUUAUCAUG the value was -3.68.
